# B1: UBE2G1, untagged recombinant (enzyme, human, UniProt P62253 1-170, looked up)
# chain: MTELQSALLLRRQLAELNKNPVEGFSAGLIDDNDLYRWEVLIIGPPDTLYEGGVFKAHLTFPKDYPLRPPKMKFITEIWHPNVDKNGDVCISILHEPGEDKYGYEKPEERWLPIHTVETIMISVISMLADPNGDSPANVDAAKEWREDRNGEFKRKVARCVRKSQETAFE
# Experiments:
# [1] = molecular target: MuRF1/telethonin complex co-expressed in yeast from pBridge::MuRF1/telethonin (rat) (UniProt Q91Z63); assay: yeast three-hybrid
# [2] = molecular target: GST-MuRF1/telethonin complexes, cross-linked (rat) (UniProt Q91Z63); assay: SPR
# [3] = molecular target: GST-MuRF1 (rat, UniProt Q91Z63 1-351); assay: SPR
# GST-MuRF1, sequence (Q91Z63 whole entry): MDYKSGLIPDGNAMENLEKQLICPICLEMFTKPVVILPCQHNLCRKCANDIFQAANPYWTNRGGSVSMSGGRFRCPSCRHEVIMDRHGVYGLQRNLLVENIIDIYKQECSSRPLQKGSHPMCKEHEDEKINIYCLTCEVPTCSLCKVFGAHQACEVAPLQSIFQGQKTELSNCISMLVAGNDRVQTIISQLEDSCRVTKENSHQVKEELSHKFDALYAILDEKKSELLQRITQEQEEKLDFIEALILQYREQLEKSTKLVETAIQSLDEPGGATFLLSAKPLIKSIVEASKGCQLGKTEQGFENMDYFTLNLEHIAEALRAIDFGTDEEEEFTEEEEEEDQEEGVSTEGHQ
# MuRF1/telethonin complex co-expressed in yeast from pBridge::MuRF1/telethonin (rat), sequence (Q91Z63 whole entry, looked up, one chain of several): as the sequence (Q91Z63 whole entry) above
Molecule,percent positive clones [1],Kd [2],ka of the E2G1 dimer (heterogeneous analyte model) [3],ka of the E2G1 monomer (heterogeneous analyte model) [3]
UBE2E1 fused to the activation domain of GAL4 (from UniProt P52482 1-193) (enzyme),93%,,,
"UBE2E1, untagged recombinant (from UniProt P52482 1-193) (enzyme)",,5 nM,,
B1,58%,,~300 M⁻¹ s⁻¹,~4000 M⁻¹ s⁻¹

# From PMC5803617 (Journal of Cachexia, Sarcopenia and Muscle, 2017)
